Drawing on PMC11862925, this text covers percent of bound ACE2-COMP retained after 8 h of dissociation for 1 substance.

Assay [1] concerns the target B.1.351 variant RBD (K417N, E484K, N501Y) (SARS-CoV-2) (UniProt P0DTC2). As to the kind of experiment: BLI. Background: In BLI a coated tip is dipped into the sample, and binding shifts an interference pattern.
Assay [2] has as its target B.1.617.1/3 variant RBD (L452R, E484Q) (SARS-CoV-2) (UniProt P0DTC2). As to the kind of experiment: BLI.

As for “ACE2-COMP (from UniProt Q9BYF1 19-615; P35444 29-73)”, the percent of bound ACE2-COMP retained after 8 h of dissociation in assay [1] and in assay [2] was 90% each time.
